Data reported in IntAct's records for PubMed 31911079.

B1: Lysyl oxidase homolog 2 (Homo sapiens), Q9Y4K0 (parent)
chain: MERPLCSHLCSCLAMLALLSPLSLAQYDSWPHYPEYFQQPAPEYHQPQAPANVAKIQLRLAGQKRKHSEGRVEVYYDGQWGTVCDDDFSIHAAHVVCRELGYVEAKSWTASSSYGKGEGPIWLDNLHCTGNEATLAACTSNGWGVTDCKHTEDVGVVCSDKRIPGFKFDNSLINQIENLNIQVEDIRIRAILSTYRKRTPVMEGYVEVKEGKTWKQICDKHWTAKNSRVVCGMFGFPGERTYNTKVYKMFASRRKQRYWPFSMDCTGTEAHISSCKLGPQVSLDPMKNVTCENGLPAVVSCVPGQVFSPDGPSRFRKAYKPEQPLVRLRGGAYIGEGRVEVLKNGEWGTVCDDKWDLVSASVVCRELGFGSAKEAVTGSRLGQGIGPIHLNEIQCTGNEKSIIDCKFNAESQGCNHEEDAGVRCNTPAMGLQKKLRLNGGRNPYEGRVEVLVERNGSLVWGMVCGQNWGIVEAMVVCRQLGLGFASNAFQETWYWHGDVNSNKVVMSGVKCSGTELSLAHCRHDGEDVACPQGGVQYGAGVACSETAPDLVLNAEMVQQTTYLEDRPMFMLQCAMEENCLSASAAQTDPTTGYRRLLRFSSQIHNNGQSDFRPKNGRHAWIWHDCHRHYHSMEVFTHYDLLNLNGTKVAEGHKASFCLEDTECEGDIQKNYECANFGDQGITMGCWDMYRHDIDCQWVDITDVPPGDYLFQVVINPNFEVAESDYSNNIMKCRSRYDGHRIWMYNCHIGGSFSEETEKKFEHFSGLLNNQLSPQ

Variants of: B1
Details: with vime_human VIM

| Variant | effect of a mutation on the interaction |
| --- | --- |
| H626Q;H628Q;Y689F | with no effect |

Variants of: B1
Details: with can2_human CAPN2, P17655
can2_human CAPN2, P17655, sequence (P17655 whole entry): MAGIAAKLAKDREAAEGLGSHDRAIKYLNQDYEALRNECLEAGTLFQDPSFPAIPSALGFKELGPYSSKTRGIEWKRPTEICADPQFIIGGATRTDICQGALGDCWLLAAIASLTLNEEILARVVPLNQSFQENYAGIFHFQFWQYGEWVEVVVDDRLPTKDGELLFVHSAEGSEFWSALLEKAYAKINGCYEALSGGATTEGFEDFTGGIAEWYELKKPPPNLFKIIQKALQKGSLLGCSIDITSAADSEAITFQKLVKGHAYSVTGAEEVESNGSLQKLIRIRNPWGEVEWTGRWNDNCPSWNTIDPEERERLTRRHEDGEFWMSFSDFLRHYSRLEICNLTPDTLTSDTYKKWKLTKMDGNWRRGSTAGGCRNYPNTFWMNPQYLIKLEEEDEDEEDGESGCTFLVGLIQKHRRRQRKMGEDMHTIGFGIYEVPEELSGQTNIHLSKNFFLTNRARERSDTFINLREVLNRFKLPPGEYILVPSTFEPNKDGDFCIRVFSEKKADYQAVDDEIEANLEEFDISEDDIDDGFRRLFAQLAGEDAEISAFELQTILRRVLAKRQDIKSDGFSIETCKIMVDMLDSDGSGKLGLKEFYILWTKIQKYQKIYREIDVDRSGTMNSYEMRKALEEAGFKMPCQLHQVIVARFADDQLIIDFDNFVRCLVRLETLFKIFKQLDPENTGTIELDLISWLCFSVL

| Variant | effect of a mutation on the interaction |
| --- | --- |
| H626Q;H628Q;Y689F | with no effect |
| N288Q;N455Q;N644Q | with no effect |
